In brackets after ≈: the same amount, converted by molar mass. Where two headings read alike, the source gives them in different places. Square brackets hold non-standard residues; d marks the D form. Peptide text beside a SMILES is read from it. Orn(N5-OH,N5-Ac) = CC(=O)N(O)CCC[C@H](N)C(=O)O
Assays:
[1] = system: A. fumigatus (ATCC 46645); format: cell-based, Aspergillus fumigatus; details: AMM
Protocol: (§1) Susceptibility tests were performed according to CLSI guidelines with slight modifications. In brief, 96-well plates (Greiner Bio-One GmbH) were prepared with 100 μL of 2 × AMM (Aspergillus minimal medium) or 0.2 × Potato Dextrose Broth (PDB) containing 3 × 10^4 spores of A. fumigatus (ATCC 46645) per well. An amount of 100μL antifungal, dissolved in water, was added to get a final concentration of 1 × AMM/0.1 × PDB medium and antifungal concentration ranging from 0.031–16 μg/mL.

[2] = system: A. fumigatus (ATCC 46645); format: cell-based, Aspergillus fumigatus
Protocol: as §1

[3] = system: A. fumigatus; set-up: method as in PMID 26956772; details: 24 h, 37 °C, 0.1 × Vogel's medium; cited from earlier work
[4] = system: A. fumigatus; assay: Uptake assay of 68Ga-labelled conjugates in A. fumigatus; format: cell-based, Aspergillus fumigatus; details: iron-depleted AMM, 45 min, 37 °C
Protocol: Assays were performed as previously described. Briefly, uptake and competition assays were performed with A. fumigatus in iron-depleted and iron-replete Aspergillus minimal media (AMM), using a 96-well MultiScreen Filter Plates HTS (1 μm glass fiber filter, Merck Millipore, Darmstadt, Germany). Compounds were incubated for 45 min at 37 °C and filters measured in a gamma counter. Competition assays were performed in the same way except for pre-incubation with the iron-containing antifungal conjugates for 15 min, resulting in a competition at the MirB transporter to show specific binding to MirB.

[5] = in vivo; set-up: species or system BALB/c mice; details: mouse, iv
Protocol: Stability test and biodistribution were conducted in 4–6 weeks-old female BALB/c mice (in-house breed, ZVTA Innsbruck). ^68Ga-labelled conjugates, dissolved in PBS (Ph. Eur. pH 7.4) and pH adjusted to pH 6.5 with sodium acetate, were injected via lateral tail vein using approximately 0.4 nmol of compound and a volume of 150 µL. For biodistribution, the same procedure was applied except for different time points of 45 and 90 min. Hereafter the animals were euthanized by cervical dislocation and the organs (blood, spleen, pancreas, stomach, liver, kidneys, heart, lung, muscle, femur) were removed and weighed. The activity of the samples was measured in a gamma counter and the results were calculated as a percentage of injected dose per gram tissue (%ID/g).

[6] = format: physicochemical; details: pH 7.4
Protocol: Aliquots of 50 µL of ^68Ga-labelled conjugate (~5 µM) were added to 450 µL of phosphate-buffered saline pH 7.4 (PBS) and 500 µL of Octanol into a 1.5 mL Eppendorf tube. The mixture was vigorously shaken for 20 min at 1400 rpm in a standard vortex (MS 3, IKA, Staufen, Germany) and hereafter, 200 µL of each phase removed and measured in a gamma counter (2480 automatic gamma counter Wizard2 3’’, Perkin Elmer, Waltham, MA, USA) LogD was calculated as the ratio of octanol/water phase using Excel. (n = 3, six technical replicates)

[7] = system: A. fumigatus; set-up: method as in PMID 31405865; details: RPMI medium, 48 h; cited from earlier work

N=C(N)NCCC[C@@H](N)C(=O)N[C@H](CCCCN)C(=O)N[C@H](CCCCN)C(=O)N[C@H](Cc1c[nH]c2ccccc12)C(=O)N[C@H](Cc1ccccc1)C(=O)N[C@H](Cc1c[nH]c2ccccc12)C(N)=O [H2N-D-PAF26-NH2] (H-[dR][dK][dK][dW][dF][dW]-NH2)
Antifungal activity (in words) ([1]; 0.031–16 µg/mL tested): no inhibition could be observed
MIC 24 h ([1]; 37 °C, 24 h): >16 µg/mL
MIC 48 h ([1]; 37 °C, 48 h): >16 µg/mL
MIC 24 h ([2]; 0.1 × PDB, 37 °C, 24 h): 8 µg/mL (≈ 8.43 µM)
MIC 48 h ([2]; 0.1 × PDB, 37 °C, 48 h): 8 µg/mL
MIC / growth inhibition ([2]; 0.1 × PDB, incubation time not given): 8 µg/mL (≈ 8.43 µM)
MIC 48 h ([2]; ATCC 46645, 48 h): 8.4 µM
IC50 [3]: 8 µM

CC(=O)N[C@@H]1CCCN(O)C(=O)/C=C(/C)CCOC(=O)[C@H](NC(=O)CCC(=O)N[C@H](CCCNC(=N)N)C(=O)N[C@H](CCCCN)C(=O)N[C@H](CCCCN)C(=O)N[C@H](Cc2c[nH]c3ccccc23)C(=O)N[C@H](Cc2ccccc2)C(=O)N[C@H](Cc2c[nH]c3ccccc23)C(N)=O)CCCN(O)C(=O)/C=C(/C)CCOC(=O)[C@H](NC(C)=O)CCCN(O)C(=O)/C=C(/C)CCOC1=O (stereo in doubt) [[^68Ga]Ga-DAFC-D-PAF26, metal not drawn]
Uptake into A. fumigatus hyphae normalized to uptake of [68Ga]Ga-TAFC [4]: 137%
tissue uptake ([5]; female, BALB/c, 0.4 nmol, total radioactivity, Kidney uptake): 150 %ID/g
tissue uptake at 0.75 h ([5]; Biodistribution Blood 45 min): 1.08 ± 0.12 %ID/g
tissue uptake at 1.5 h ([5]; Biodistribution Blood 90 min): 0.4 ± 0.04 %ID/g
tissue uptake at 0.75 h ([5]; Biodistribution Femur 45 min): 1.47 ± 0.09 %ID/g
tissue uptake at 1.5 h ([5]; Biodistribution Femur 90 min): 1.11 ± 0.16 %ID/g
tissue uptake at 0.75 h ([5]; Biodistribution Heart 45 min): 0.76 ± 0.02 %ID/g
tissue uptake at 1.5 h ([5]; Biodistribution Heart 90 min): 0.6 ± 0.23 %ID/g
tissue uptake at 0.75 h ([5]; Biodistribution Intestine 45 min): 0.63 ± 0.02 %ID/g
tissue uptake at 1.5 h ([5]; Biodistribution Intestine 90 min): 0.56 ± 0.03 %ID/g
tissue uptake at 0.75 h ([5]; Biodistribution Kidneys 45 min): 150 ± 18 %ID/g
tissue uptake at 1.5 h ([5]; Biodistribution Kidneys 90 min): 158 ± 25.6 %ID/g
tissue uptake at 0.75 h ([5]; Biodistribution Liver 45 min): 20.8 ± 0.58 %ID/g
tissue uptake at 1.5 h ([5]; Biodistribution Liver 90 min): 23 ± 0.89 %ID/g
tissue uptake at 0.75 h ([5]; Biodistribution Lung 45 min): 2.16 ± 0.19 %ID/g
tissue uptake at 1.5 h ([5]; Biodistribution Lung 90 min): 1.31 ± 0.23 %ID/g
tissue uptake at 0.75 h ([5]; Biodistribution Muscle 45 min): 0.42 ± 0.18 %ID/g
tissue uptake at 1.5 h ([5]; Biodistribution Muscle 90 min): 0.28 ± 0.1 %ID/g
tissue uptake at 0.75 h ([5]; Biodistribution Pancreas 45 min): 0.41 ± 0.02 %ID/g
tissue uptake at 1.5 h ([5]; Biodistribution Pancreas 90 min): 0.26 ± 0.03 %ID/g
tissue uptake at 0.75 h ([5]; Biodistribution Spleen 45 min): 2.21 ± 0.15 %ID/g
tissue uptake at 1.5 h ([5]; Biodistribution Spleen 90 min): 1.97 ± 0.21 %ID/g
tissue uptake at 0.75 h ([5]; Biodistribution Stomach 45 min): 0.45 ± 0.17 %ID/g
tissue uptake at 1.5 h ([5]; Biodistribution Stomach 90 min): 0.35 ± 0.03 %ID/g
logD [6]: -3.35 ± 0.16

CC(=O)N([O-])CCC[C@@H]1NC(=O)[C@H](CCCN([O-])C(C)=O)NC(=O)[C@H](CCCN([O-])C(C)=O)NC(=O)[C@@H](Cc2ccccc2)NC(=O)[C@H](CC(C)C)NC(=O)[C@H](CC(N)=O)NC1=O.[Al+3] [VL-2397] (cyclo(L[dF][Orn(N5-OH,N5-Ac)][Orn(N5-OH,N5-Ac)][Orn(N5-OH,N5-Ac)]N))
MIC [7]: 1 µg/mL

Source: article PMC7765500, “Siderophore Scaffold as Carrier for Antifungal Peptides in Therapy of Aspergillus fumigatus Infections” (Journal of Fungi, 2020)
